The text below walks through data of US20200268901A1.

The target of test [1] is hCD73-his (full length extracellular domain of human CD73, residues 26-546, C-terminal polyhistidine tag) (human) (UniProt P21589). Kind of test: SEC-MALS, hCD73-his:Fab 1:2 (4:8 uM); peak at ~16.8 min, 0.8 % of UV.
For test [2], the target named is N-hCD73-his (N-terminal domain of human CD73, residues 26-336) (human) (UniProt P21589). The experiment in a line: SEC-MALS, N-hCD73-his:Fab 1:1 (8:8 uM); peak at ~20.0 min, 4.7 % of UV.
N-hCD73-his (N-terminal domain of human CD73, residues 26-336) (human), sequence (P21589 26-336 limits assumed): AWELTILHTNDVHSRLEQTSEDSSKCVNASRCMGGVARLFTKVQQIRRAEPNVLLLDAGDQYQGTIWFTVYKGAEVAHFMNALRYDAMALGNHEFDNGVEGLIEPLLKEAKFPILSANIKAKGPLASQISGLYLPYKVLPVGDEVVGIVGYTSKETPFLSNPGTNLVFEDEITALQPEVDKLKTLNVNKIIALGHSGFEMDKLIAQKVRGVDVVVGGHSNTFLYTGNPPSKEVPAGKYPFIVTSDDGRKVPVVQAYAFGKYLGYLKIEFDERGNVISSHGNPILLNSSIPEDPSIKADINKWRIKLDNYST
For test [3], the target named is hCD73-his (full length extracellular domain of human CD73, residues 26-546, C-terminal polyhistidine tag) (human) (UniProt P21589). The experiment in a line: SEC-MALS, hCD73-his:Fab 1:2 (4:8 uM); peak at ~12.6 min, 0.9 % of UV. (In general: Size exclusion chromatography separates by hydrodynamic size, large species first.)
The target is the same in test [4]. Kind of test: SEC-MALS, hCD73-his:Fab 1:2 (4:8 uM); peak at ~14.7 min, 90.7 % of UV.
The target is the same in test [5]. Kind of test: SEC-MALS, hCD73-his:Fab 1:2 (4:8 uM); peak at ~20.1 min, 7.7 % of UV.
The target of test [6] is N-hCD73-his (N-terminal domain of human CD73, residues 26-336) (human) (UniProt P21589). The experiment in a line: SEC-MALS, N-hCD73-his:Fab 1:1 (8:8 uM); peak at ~17.4 min, 95.3 % of UV.
The target in test [7] is hCD73-his (full length extracellular domain of human CD73, residues 26-546, C-terminal polyhistidine tag) (human) (UniProt P21589). The experiment in a line: DLS, hCD73-his:Fab 1:2 (4:8 uM); Rh SD 0.1, %Pd 15.1 (SD 4.3), %Mass 100.0 (SD 0.0).
The target in test [8] is N-hCD73-his (N-terminal domain of human CD73, residues 26-336) (human) (UniProt P21589). Kind of test: DLS, N-hCD73-his:Fab 1:1 (8:8 uM); Rh SD 0.1, %Pd 12.6 (SD 4.7), %Mass 100.0 (SD 0.0).
For test [9], the target named is hCD73-his (full length extracellular domain of human CD73, residues 26-546, C-terminal polyhistidine tag) (human) (UniProt P21589). Kind of test: SEC-MALS, hCD73:mAb 1:2 (2.5:5 uM); peak at ~11.7 min, 52.5 % of UV.
The target is the same in test [10]. The experiment in a line: DLS, hCD73:mAb 1:4 (2.5:10 uM); Rh SD 0.9, %Pd 42.9 (SD 3.5), %Mass 90.2 (SD 17.5).
Test [11] shares this target. The experiment in a line: SEC-MALS, hCD73:mAb 1:2 (2.5:5 uM); peak at ~17.1 min, 29.3 % of UV.
The target in test [12] is N-hCD73-his (N-terminal domain of human CD73, residues 26-336) (human) (UniProt P21589). The experiment in a line: SEC-MALS, N-hCD73:mAb 1:1 as printed (5:[…]); peak at ~17.0 min, […] of UV.
The target is the same in test [13]. The experiment in a line: SEC-MALS, N-hCD73:mAb 1:1 as printed (5:[…]); peak at ~15.9 min, […] of UV.
Test [14] concerns the target hCD73-his (full length extracellular domain of human CD73, residues 26-546, C-terminal polyhistidine tag) (human) (UniProt P21589). The experiment in a line: SEC-MALS, hCD73:mAb 1:2 (2.5:5 uM); peak at ~13.4 min, 17.7 % of UV.
For test [15] the target is unchanged. The experiment in a line: SEC-MALS, hCD73:mAb 1:0.5 (2.5:1.25 uM); peak at ~13.4 min, 15.8 % of UV.
The target is the same in test [16]. Kind of test: DLS, hCD73:mAb 1:1 (2.5:[…]); Rh SD 1.0, %Pd 25.1 (SD 2.1), %Mass 22.3 (SD 4.9).
In test [17] the target is N-hCD73-his (N-terminal domain of human CD73, residues 26-336) (human) (UniProt P21589). The experiment in a line: SEC-MALS, N-hCD73:mAb 1:1 as printed (5:[…]); peak at ~13.9 min, 0.7 % of UV.
Test [18] shares this target. The experiment in a line: SEC-MALS, N-hCD73:mAb 1:1 as printed (5:[…]); peak at ~14.7 min, 88.3 % of UV.
In test [19] the target is hCD73-his (full length extracellular domain of human CD73, residues 26-546, C-terminal polyhistidine tag) (human) (UniProt P21589). Kind of test: SEC-MALS, hCD73:mAb 1:1 (2.5:[…]); peak at ~11.5 min, 95.3 % of UV.
Test [20] shares this target. Kind of test: SEC-MALS, hCD73:mAb 1:1 (2.5:[…]); peak at ~17.1 min, […] of UV.
Test [21] shares this target. The experiment in a line: SEC-MALS, hCD73:mAb 1:0.25 (2.5:0.625 uM); peak at ~13.4 min, 21.6 % of UV.
Test [22] has the same target. The experiment in a line: DLS, hCD73:mAb 1:0.5 (2.5:1.25 uM); Rh SD 1.0, %Pd 31.7 (SD 8.8), %Mass 62.6 (SD 25.8).
The target is the same in test [23]. Kind of test: SEC-MALS, hCD73:mAb 1:4 (2.5:10 uM); peak at ~17.1 min, 58.6 % of UV.
For test [24] the target is unchanged. Kind of test: SEC-MALS, hCD73:mAb 1:4 (2.5:10 uM); peak at ~15.3 min, 1.2 % of UV.
For test [25] the target is unchanged. The experiment in a line: SEC-MALS, hCD73:mAb 1:0.5 (2.5:1.25 uM); peak at ~17.1 min, 13.4 % of UV.
Test [26] deals with N-hCD73-his (N-terminal domain of human CD73, residues 26-336) (human) (UniProt P21589). The experiment in a line: DLS, N-hCD73:mAb 1:1 as printed (5:[…]); Rh SD 0.3, %Pd 13.9 (SD 7.0), %Mass 100.0 (SD 0.0).
Test [27] deals with hCD73-his (full length extracellular domain of human CD73, residues 26-546, C-terminal polyhistidine tag) (human) (UniProt P21589). Kind of test: SEC-MALS, hCD73:mAb 1:2 (2.5:5 uM); peak at ~15.3 min, 0.6 % of UV.
Test [28] has the same target. The experiment in a line: SEC-MALS, hCD73:mAb 1:4 (2.5:10 uM); peak at ~11.7 min, […] of UV.
Test [29] has the same target. Kind of test: SEC-MALS, hCD73:mAb 1:0.25 (2.5:0.625 uM); peak at ~11.8 min, 42.0 % of UV.
The target is the same in test [30]. The experiment in a line: SEC-MALS, hCD73:mAb 1:0.5 (2.5:1.25 uM); peak at ~11.7 min, 71.9 % of UV.
Test [31] shares this target. The experiment in a line: SEC-MALS, hCD73:mAb 1:0.25 (2.5:0.625 uM); peak at ~17.1 min, 36.4 % of UV.
For test [32] the target is unchanged. The experiment in a line: SEC-MALS, hCD73:mAb 1:4 (2.5:10 uM); peak at ~13.4 min, 16.2 % of UV.
For test [33] the target is unchanged. The experiment in a line: DLS, hCD73:mAb 1:0.25 (2.5:0.625 uM); Rh SD 1.7, %Pd 46.5 (SD 5.9), %Mass 99.9 (SD 0.1).
For test [34] the target is unchanged. Kind of test: SEC-MALS, hCD73:mAb 1:1 (2.5:[…]); peak at ~13.4 min, 1.9 % of UV.
The target is the same in test [35]. The experiment in a line: DLS, hCD73:mAb 1:2 (2.5:5 uM); Rh SD 0.1, %Pd 31.3 (SD 5.5), %Mass 68.7 (SD 25.8).

hCD73-his (full length extracellular domain of human CD73, residues 26-546, C-terminal polyhistidine tag) (human), sequence (P21589 26-546 limits assumed): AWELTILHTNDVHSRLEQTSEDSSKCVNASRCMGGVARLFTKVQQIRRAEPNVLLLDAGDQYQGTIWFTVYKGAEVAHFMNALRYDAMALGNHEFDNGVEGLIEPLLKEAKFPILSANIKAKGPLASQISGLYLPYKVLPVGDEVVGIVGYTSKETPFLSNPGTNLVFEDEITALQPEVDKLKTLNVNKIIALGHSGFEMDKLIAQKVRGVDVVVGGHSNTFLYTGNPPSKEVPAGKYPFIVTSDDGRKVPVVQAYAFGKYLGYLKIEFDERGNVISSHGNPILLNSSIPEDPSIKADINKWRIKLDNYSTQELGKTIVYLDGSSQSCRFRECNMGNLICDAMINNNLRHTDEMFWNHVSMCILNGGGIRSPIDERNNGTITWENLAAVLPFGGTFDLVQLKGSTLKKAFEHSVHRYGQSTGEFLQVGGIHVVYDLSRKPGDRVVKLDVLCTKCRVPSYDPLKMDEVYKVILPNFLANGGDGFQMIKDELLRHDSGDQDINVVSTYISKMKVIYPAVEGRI

B1: 11F11-Fab (Fab, V domains shown, part only)
VH: QVQLVESGGGVVQPGRSLRLSCATSGFTFSNYGMHWVRQAPGKGLEWVAVILYDGSNKYYPDSVKGRFTISRDNSKNTLYLQMNSLRAEDTAVYYCARGGSSWYPDSFDIWGQGTMVTVSS
VL: DIQMTQSPSSLSASVGDRVTITCRASQGISSWLAWYQQKPEKAPKSLIYAASSLQSGVPSRFSGSGSGTDFTLTISSLQPEDFATYYCQQYNSYPLTFGGGTKVEIKR
modifications: CH1 of Fab heavy chain not stated
B1 yielded an MW (kDa) Peak 3 in test [1] of 85 kDa. Also, the MW (kDa) Peak 2 in [2] came out at 44 kDa; in [4], 310 kDa. Moreover, the MW (kDa) Peak 1 in test [3] came to 300 kDa; in [6] it was 84 kDa. The MW (kDa) Peak 4 in test [5] was found to be 40 kDa. Also, the Rh (DLS) turned out to be 6.4 nm in test [7] and 4.2 nm in test [8].

B2: CD73.4-hybrid (antibody, from a related filing, V domains shown, part only)
VH: QVQLVESGGGVVQPGRSLRLSCAASGFTFSNYGMHWVRQAPGKGLEWVAVILYDGSNKYYPDSVKGRFTISRDNSKNTLYLQMNSLRAEDTAVYYCARGGSSWYPDSFDIWGQGTMVTVSS
VL: DIQMTQSPSSLSASVGDRVTITCRASQGISSWLAWYQQKPEKAPKSLIYAASSLQSGVPSRFSGSGSGTDFTLTISSLQPEDFATYYCQQYNSYPLTFGGGTKVEIKR
Regarding B2, the MW (kDa) Peak 1 turned out to be 1700 kDa in test [9]; 390 kDa in [17]; 3300 kDa in test [19]; 1300 kDa in test [28]; 1200 kDa in test [29]; 1900 kDa in test [30]. The Rh (DLS) in [10] is 11.4 nm; in [16] it was 29.9 nm; in [22], 17.5 nm; in [26] it was 6.7 nm; in test [33] it was 13.2 nm; in [35], 14.4 nm. The MW (kDa) Peak 4 is 140 kDa in [11], 150 kDa in test [12] and 140 kDa in test [23]. Further, the MW (kDa) Peak 3 in test [13] came out at 180 kDa; in test [20], 530 kDa; in test [24], 200 kDa; in test [25] it was 130 kDa; in test [27], 220 kDa; in test [31], 120 kDa. In addition, the MW (kDa) Peak 2 in [14] worked out at 500 kDa; in test [15] it was 540 kDa; in [18], 210 kDa; in test [21], 520 kDa; in test [32], 500 kDa; in test [34], 1000 kDa.
